Results taken from PMC10247153, “Chromatin Sensing by the Auxiliary Domains of KDM5C Regulates Its Demethylase Activity and Is Disrupted by X-linked Intellectual Disability Mutations”.

Molecular target: T1, KDM5C ARID (Homo sapiens, UniProt P41229 73-188)
T1 sequence: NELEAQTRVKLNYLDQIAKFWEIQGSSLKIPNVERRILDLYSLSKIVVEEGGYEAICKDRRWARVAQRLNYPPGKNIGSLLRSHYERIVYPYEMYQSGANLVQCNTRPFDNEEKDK
Experiment: EMSA; apparent Kd; EMSA: 50 mM HEPES pH 7.5, 50 mM KCl, 1 mM BME, 0.01% Tween-20, 0.01% BSA, 5% sucrose, 1 h on ice; 100 nM nucleosome or 147 bp DNA, 500 nM 20 bp DNA; gel at 4 C.
Details: protein: recombinant; tags: 6xHis-SUMO cleaved

B1: 5' flanking (linker) DNA 20 bp (dsDNA)
DNA 1: GGACCCTATACGCGGCCGCC
DNA 2: GGCGGCCGCGTATAGGGTCC
  Kd: 9.9 ± 0.4 µM
